Patent US20120058906A1 (published 2012)
Blank lines part the entries; values can stand above or below the binder they belong to.

Assays:
[1] = target: T1, rHuman CD44/Fc Chimera, CF (R&D Systems Cat#3660-CD) (human, UniProt P16070 21-220); assay: ECL (MSD Multi-Spot) binding, antigen spotted on plate; Fab 25 nM
T1 construct: Bought Fc chimera; Fc part of the bought chimera not given

[2] = target: T2, rHuman IGF-1 sR, CF (R&D Systems Cat#391-GR) (human, UniProt P08069 31-932); assay: as above
T2 construct: Bought soluble receptor; also called insulin-like growth factor-1 soluble receptor; IGF-R1

[3] = target: T3, rHuman P-Cadherin/Fc Chimera, CF (R&D Systems Cat#861-PC) (human, UniProt P22223 108-654); assay: as above
T3 construct: Bought Fc chimera; Fc part of the bought chimera not given

[4] = target: T4, rHuman Erythropoietin R/Fc Chimera, CF (R&D Systems Cat#963-ER) (human, UniProt P19235 25-250); assay: as above
T4 construct: Bought Fc chimera; also called EPO R/Fc; erythropoietin receptor; Fc part of the bought chimera not given
T4 sequence: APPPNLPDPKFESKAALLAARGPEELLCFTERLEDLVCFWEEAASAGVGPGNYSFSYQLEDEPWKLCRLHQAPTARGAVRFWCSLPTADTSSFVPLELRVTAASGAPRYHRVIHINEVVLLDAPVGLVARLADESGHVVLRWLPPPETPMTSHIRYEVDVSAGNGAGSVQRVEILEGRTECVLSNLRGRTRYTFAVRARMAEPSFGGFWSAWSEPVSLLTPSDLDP

[5] = target: T5, Recombinant Human DLL4 (R&D Systems Cat#1506-D4/CF) (human, UniProt Q9NR61 27-524); assay: as above
T5 construct: Bought recombinant protein; also called delta-like protein 4

[6] = target: T6, rHuman Notch-1/Fc Chimera, CF (R&D Systems Cat#3647-TK) (human, UniProt P46531 19-526); assay: as above
T6 construct: Bought Fc chimera; Fc part of the bought chimera not given

[7] = target: T1, rHuman CD44/Fc Chimera, CF (R&D Systems …); assay: ECL (MSD Multi-Spot) binding, antigen spotted on plate; Fab 500 nM
[8] = target: T2, rHuman IGF-1 sR, CF (R&D Systems …); assay: as above
[9] = target: T3, rHuman P-Cadherin/Fc Chimera, CF (R&D …); assay: as above
[10] = target: T4, rHuman Erythropoietin R/Fc Chimera, CF …; assay: as above
[11] = target: T5, Recombinant Human DLL4 (R&D Systems …); assay: as above
[12] = target: T6, rHuman Notch-1/Fc Chimera, CF (R&D …); assay: as above
[13] = target: T1, rHuman CD44/Fc Chimera, CF (R&D Systems …); assay: ECL (MSD Multi-Spot) binding, antigen spotted on plate; Fab 1.25 nM
[14] = target: T2, rHuman IGF-1 sR, CF (R&D Systems …); assay: as above
[15] = target: T3, rHuman P-Cadherin/Fc Chimera, CF (R&D …); assay: as above
[16] = target: T4, rHuman Erythropoietin R/Fc Chimera, CF …; assay: as above
[17] = target: T5, Recombinant Human DLL4 (R&D Systems …); assay: as above
[18] = target: T6, rHuman Notch-1/Fc Chimera, CF (R&D …); assay: as above
[19] = target: T1, rHuman CD44/Fc Chimera, CF (R&D Systems …); assay: ECL (MSD Multi-Spot) binding, antigen spotted on plate; Fab 0.0625 nM
[20] = target: T2, rHuman IGF-1 sR, CF (R&D Systems …); assay: as above
[21] = target: T3, rHuman P-Cadherin/Fc Chimera, CF (R&D …); assay: as above
[22] = target: T4, rHuman Erythropoietin R/Fc Chimera, CF …; assay: as above
[23] = target: T5, Recombinant Human DLL4 (R&D Systems …); assay: as above
[24] = target: T6, rHuman Notch-1/Fc Chimera, CF (R&D …); assay: as above
[25] = target: T1, rHuman CD44/Fc Chimera, CF (R&D Systems …); assay: ECL (MSD Multi-Spot) binding, antigen spotted on plate; Fab 10 nM
[26] = target: T2, rHuman IGF-1 sR, CF (R&D Systems …); assay: as above
[27] = target: T3, rHuman P-Cadherin/Fc Chimera, CF (R&D …); assay: as above
[28] = target: T4, rHuman Erythropoietin R/Fc Chimera, CF …; assay: as above
[29] = target: T5, Recombinant Human DLL4 (R&D Systems …); assay: as above
[30] = target: T7, rHuman ErbB2/Fc Chimera, CF (R&D Systems Cat#1129-ER) (human, UniProt P04626 23-652); assay: as above
T7 construct: Bought Fc chimera; also called human epidermal growth factor 2 receptor; HER2/neu; Fc part of the bought chimera not given

[31] = target: T8, rHuman EGF R/Fc Chimera, CF (R&D Systems Cat#344-ER) (human, UniProt P00533 25-645); assay: as above
T8 construct: Bought Fc chimera; also called epidermal growth factor receptor; Fc part of the bought chimera not given

[32] = target: T9, rHuman HGF R/c-MET/Fc Chimera, CF (R&D Systems Cat#358-MT/CF) (human, UniProt P08581 25-932); assay: as above
T9 construct: Bought Fc chimera; also called HGF R/Fc; hepatocyte growth factor receptor; Fc part of the bought chimera not given

[33] = target: T6, rHuman Notch-1/Fc Chimera, CF (R&D …); assay: as above
[34] = target: T1, rHuman CD44/Fc Chimera, CF (R&D Systems …); assay: ECL (MSD Multi-Spot) binding, antigen spotted on plate; Fab 1000 nM
[35] = target: T2, rHuman IGF-1 sR, CF (R&D Systems …); assay: as above
[36] = target: T3, rHuman P-Cadherin/Fc Chimera, CF (R&D …); assay: as above
[37] = target: T4, rHuman Erythropoietin R/Fc Chimera, CF …; assay: as above
[38] = target: T5, Recombinant Human DLL4 (R&D Systems …); assay: as above
[39] = target: T7, rHuman ErbB2/Fc Chimera, CF (R&D …); assay: as above
[40] = target: T8, rHuman EGF R/Fc Chimera, CF (R&D …); assay: as above
[41] = target: T9, rHuman HGF R/c-MET/Fc Chimera, CF (R&D …); assay: as above
[42] = target: T6, rHuman Notch-1/Fc Chimera, CF (R&D …); assay: as above
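Note: blank spot per well as comparator with Hit at signal to blank ratio of 4 or more.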

- ECL signal [1]: 570
- ECL signal [2]: 780
- ECL signal [3]: 269
- ECL signal [4]: 597
- ECL signal [5]: 77900
- ECL signal [6]: 440
- ECL signal [7]: 923
- ECL signal [8]: 1110
- ECL signal [9]: 815
- ECL signal [10]: 828
- ECL signal [11]: 25900
- ECL signal [12]: 703
- ECL signal [13]: 444
- ECL signal [14]: 674
- ECL signal [15]: 374
- ECL signal [16]: 448
- ECL signal [17]: 38800
- ECL signal [18]: 312
- ECL signal [19]: 394
- ECL signal [20]: 537
- ECL signal [21]: 331
- ECL signal [22]: 332
- ECL signal [23]: 1010
- ECL signal [24]: 439
B1: Fab VH5-51_IGHD5-18*01>3_IGHJ4*01_G100K_G104T & V3-4_IGLJ1*01 (Fab, V domains shown)
VH: EVQLVQSGAEVKKPGESLKISCKGSGYSFTSYWIGWVRQMPGKGLEWMGIIYPGDSDTRYSPSFQGQVTISADKSISTAYLQWSSLKASDTAMYYCARRKYSYTYDYFDYWGQGTLVTVSS
VL: QTVVTQEPSFSVSPGGTVTLTCGLSSGSVSTSYYPSWYQQTPGQAPRTLIYSTNTRSSGVPDRFSGSILGNKAALTITGAQADDESDYYCVLYMGSGISYVFGTGTKVTVL
notes: Fab made in E. coli

- ECL signal [25]: 887
- ECL signal [26]: 720
- ECL signal [27]: 894
- ECL signal [28]: 1110
- ECL signal [29]: 345000
- ECL signal [30]: 842
- ECL signal [31]: 809
- ECL signal [32]: 691
- ECL signal [33]: 1140
- ECL signal [34]: 1310
- ECL signal [35]: 1180
- ECL signal [36]: 2500
- ECL signal [37]: 1660
- ECL signal [38]: 73300
- ECL signal [39]: 1290
- ECL signal [40]: 2430
- ECL signal [41]: 1580
- ECL signal [42]: 1620
B2: Fab VH1-46_IGHD6-6*01_IGHJ1*01_S102A_S103P_S104F & L6_IGKJ1*01 (Fab, V domains shown)
VH: QVQLVQSGAEVKKPGASVKVSCKASGYTFTSYYMHWVRQAPGQGLEWMGIINPSGGSTSYAQKFQGRVTMTRDTSTSTVYMELSSLRSEDTAVYYCAREEYAPFSAEYFQHWGQGTLVTVSS
VL: not shown
notes: Fab made in E. coli; The heavy chain also carries the CH1 with Flag and His tags of Plasmid A, and the light chain the kappa constant region of Plasmid C
